The values that follow come from FireProtDB (doi:10.1002/prot.1147).

The conditions of the data set: Homo sapiens; pH 2.7; Thermal; DSC; Gly-HCl 0.05 M; reversible: yes; whole UniProt chain shown.

B1: Lysozyme C wild type, P61626 (protein)
chain: MKALIVLGLVLLSVTVQGKVFERCELARTLKRLGMDGYRGISLANWMCLAKWESGYNTRATNYNAGDRSTDYGIFQINSRYWCNDGKTPGAVNACHLSCSALLQDNIADAVACAKRVVRDPQGIRAWVAWRNRCQNRDVRQYVQGCGV
With B1, the Tm is 64.9 °C, the “heat capacity change of unfolding” value amounted to 1.58 kcal/mol/K and the “unfolding enthalpy (van 't Hoff)” value stood at 114 kcal/mol.
